Patent US5874287

Molecular target: G protein alpha subunit of human erythrocyte membranes (human) (UniProt P63092)

rCTXA1/T1 (CTXA1 truncated at Trp179) (enzyme)
SPECIFIC ACTIVITY FOR HEM G. PROTEIN (ADP-ribosyltransferase, relative): < 0.01
